Test results reported in the DeepSol protein solubility set.

Assay: soluble on expression in E. coli; label from the status in PepcDB or PDB records

| Sequence | soluble on expression in E. coli |
| --- | --- |
| MSTRTEAVKAYLLDLQDRICTALEQEDGNAHFVEDAWTRPAGGGGRTRVVENGAVIEKGGVNFSHVFGSNLPPSASAHRPELAGRGFEALGVSLVIHPHSPHVPTSHANVRFFIAEKEGEEPVWWFGGGFDLTPYYGVEEDCVHWHRVAERACAPFGDDVYPRYKAWCDSYFHLKHRDEPRGIGGLFFDDVNQWDFDTSFAFIRAIGDAFINAYLPIVRRRKAAAYTVQQREFQEFRRGRYVEFNLVYDRGTLFGLQSGGRTESILMSLPPQVRWGYDWKAAPGSEEARLTDYFLTDRDWLADNAAALEHHHHHH | not soluble |
| MDNDGINADPMELEKFSQLAHHWWDPNSEFKPLHEINPLRLNYIDEIIGGLSEKTVIDVGCGGGILSESMAARGASVTGIDLSDKALKVAKLHLLESGNQVDYRKITVEALATERPRYYDVVTCMEMLEHVPDPASVIQSCARLVKSGGWVFFSTLNRNPKSYLYAIIGAEYILRLLPRGTHEYAKFIKPSELAHMARSAGLMESGIVGMTYNPITKVYALEADTSVNYIMAFRA | not soluble |
| AANDNNVEWNGLFHDQGPLFDNAPEPTSTQSVTLKLRTFKGDITSANIKYWDTADNAFHWVPMVWDSNDPTGTFDYWKGTIPASPSIKYYRFQINDGTSTAWYNGNGPSSTEPNADDFYIIPNFKTPDWLKNGVMYQIFPDRFYNGDSSNDVQTGSYTYNGTPTEKKAWGSSVYADPGYDNSLVFFGGDLAGIDQKLGYIKKTLGANILYLNPIFKAPTNHKYDTQDYMAVDPAFGDNSTLQTLINDIHSTANGPKGYLILDGVFNHTGDSHPWFDKYNNFSSQGAYESQSSPWYNYYTFYTWPDSYASFLGFNSLPKLNYGNSGSAVRGVIYNNSNSVAKTYLNPPYSVDGWRLDAAQYVDANGNNGSDVTNHQIWSEFRNAVKGVNSNAAIIGEYWGNANPWTAQGNQWDAATNFDGFTQPVSEWITGKDYQNNSASISTTQFDSWLRGTRANYPTNVQQSMMNFLSNHDITRFATRSGGDLWKTYLALIFQMTYVGTPTIYYGDEYGMQGGADPDNRRSFDWSQATPSNSAVALTQKLITIRNQYPALRTGSFMTLITDDTNKIYSYGRFDNVNRIAVVLNNDSVSHTVNVPVWQLSMPNGSTVTDKITGHSYTVQNGMVTVAVDGHYGAVLAQ | soluble |
| MKIAIIGYSGSGKSTLANFLGQHYNCEVLHLDKIHFTSNWQERTVDEMTDDISTFMLQSDWIIEGNYSACLYEERMREADCIVYFNFNRVNCLYRAFRRYLTYRGKTRPSMAEG | not soluble |
| MRSSNNRHEGEEAMNRTQQWMEDLQKNISDLIARSPAADVERNVRAMMTQTFARLDLITREEFEVQVDLLARARTRVDQLSAQVQQLEARLAALEAGKPQA | not soluble |
| MHERHRFWQRALRLLSLGVPREASSALFGHDHSLQQETWLRSLQKEKQHIIDWHDRLTDIPFVIIDMETTGFSPEQGDEILAMAAAKTVGGVVTDAYMTLVKPEKPIPEHISALTGIEAKDVVFAPPLAEALRTFVPFIAAGVLIGYHIGHDLAFLRHALWRHYRQKWSGRFVDLQPMMTLIGHSCPTFDDALACYGICCPRRHTADGDVEAMAKLWAILLDEFRQRGIDTLHDLYAALSRC | not soluble |
| MLERLKAITNLLKGALEQRSRAEEGYIREEKVKEAIELLEALERDIMEKELKLAKEALEKFDSNRKFYYLVGKLYVEVSKEEAQKLIEDELKMFGGEGK | not soluble |
| MGSDKIHHHHHHMRFWDIRRVENVSLNLQLENGKLEKPRYNKSTSKGFRVLKNGFWGIFEGNVADDEGLRQAEKNAFTQGDGDIEEIATKGRYRMRVKRDPQDMSIEEKVELLKDLEKIIRDVCVSTKLVYFENRRVLQYRDSCGSEVEYEVLRTGVSIMGVGKGRSLQFLSKRQMRVGGYEVLDGVDEKAYEIVEVLPKLVNALAPPSGEMSVVMDSSLAGVFVHEAFGHAVEADHVLQGATVLKGRLNEKVADESVTIIDDPTLPEFGFFPFDDEGVRAEKKVIVEDGVLKSFLHSRETAKKLGGVAGNARSQGVDVPIVRMSNTYIDTHHYSFDELLEECRDGVYLVGSRGGETNPATGYFHFNAQYGYLIKNGELAEMVRDVSLSGNTLEILRNVKIGREIEFDPGFCGKAGQLVPVSDGSPPVLCRATVGGA | not soluble |
| MSLPTTIQAISAEAINLPLTEPFAIASGAQAVAANVLVKVQLADGTLGLGEAAPFPAVSGETQTGTSAAIERLQSHLLGADVRGWRKLAAMLDHAEHEAAAARCGLEMAMLDALTRHYHMPLHVFFGGVSKQLETDMTITAGDEVHAAASAKAILARGIKSIKVKTAGVDVAYDLARLRAIHQAAPTAPLIVDGNCGYDVERALAFCAACKAESIPMVLFEQPLPREDWAGMAQVTAQSGFAVAADESARSAHDVLRIAREGTASVINIKLMKAGVAEGLKMIAIAQAAGLGLMIGGMVESILAMSFSANLAAGNGGFDFIDLDTPLFIAEHPFIGGFAQTGGTLQLADVAGHGVNLEGHHHHHH | soluble |
| MIDFRPFYQQIATSHLSAWLETLPLQLKQWEKTAHSDYAKWAKIATSMPTSPTSINLTDKVEAVLAEALPEGEKQYLIYRLKQLMPWRKGPYHLHGVHIDTEWRSDFKWQRVLPHLAPLKDRTILDVGCGNGYHMWRMVGEDAQMVVGIDPTELFLCQFEAVRQLLGNDRRANLIPLGLEQMQPLAAFDTVFSMGVLYHRKSPLDHLSQLKAQLVKGGELVLETLIIDGDINDILTPADRYAKMKNVYFIPSVAALINWLKKIGFKNARCVDQSVTTLAEQRKTEWLENESLVDFLDPTDQRKTIEGLPAPKRAVILANA | not soluble |
| GSPLPWCPHLVAVCPIPAAGLDVTQPCGDCGTIQENWVCLSCYQVYCGRYINGHMLQHHGNSGHPLVLSYIDLSAWCYYCQAYVHHQALLDVKNIAHQNKFGEDMPHPH | soluble |
| TPDFGFTLRGNFTYSKNKVQNWEQAYLEYPYLEYNNFPYNSIRGYQAVGLFKDEDDIKYSPKQTFGEVMPGDIKYKDINGDGMVDKLDMVPLTHSTYPLLMYGLGAEIRYKNLTLGVLFKGTGKTSFFYVGQKTTVNDETRLNGMGYMPFFEGNTGNVLTLAANPVNRWIPRDYAIAHGIDPSLAENPNARFPRLQYGNNSNNSQLSTFWQGDSRYIRLQEITLNYHLATAFLRRIGVSSLDIQFVGNNLYVWDKVKLFDPEQARWNGRVYPIPSTYSLQLYVNL | not soluble |
| MAMNLPADNEGKIKLAMSILVTIINDTGVPRNIRRAAANALTHLRDPRLSPAVRAANAISALEEVSQDPNMPFYARTRIWQVITILETVRD | not soluble |
| MGSDKIHHHHHHMDPVLELEAVSKCFQRYRHPRDRLWELLFPRTSRVQTFQALENISLQVEPGRTIGIVGRNGAGKSTLLQIVAGTLTPSSGRVKVRGRVAALLELGSGFNPEFTGRQNVFFNGQLLGLTPQEIRDRFAEIVAFAEIGDFLDQPVKTYSSGMMVRLAFSVVAHLDPELLIVDEALAVGDARFQARCMKRIRELKEKGTTILFVSHDANAVRMLCDEAVLLEGGRILERGNPNWVLNHYNQLLGLEDRDNYRPLAQETQQAGLCYVEQAAHPNRHGNGRATISKAWLSGSGLQADKVLQGGDLTLTFQLQIHQDLPDALIGLSIRNLYGVVIYGTNNLQLEKRPKALAAGSSPELSFRWRNQLNAGVYTISIAITSEDCEVYDWIDEALVFEVVNDRFCEGVIDLGADLHWISEFSSPAAIATSRDSLGSTSPSS | not soluble |
| MAQEKMDLDFEADTSEGATLRRSNSAPLIHVLSDLSQVFEPYPLRTGRTSTAIMSHHSLEEGLDMMNRETTNEREAQAGMQISQSWDESLSLSGSDFDKPEKLYSPKRIDFTPVSPAPSPTRGFGKQCLSPSLQMFVSSSGMPPSPVLNPRHFSRRSQSPVKCIRPSVLGPLKRKGEMEMESQPKRPFQGTTSMLSTNPAQLSDFSSCSDILDGSSISSGLSSDSLATGSAPAESPVACSNSCSPFILMDDLSPK | not soluble |
| MGHHHHHHSHMPQFSPSYSFPVQIYYEDTDFSGVVYHPNFLKYFERAREHVIGAEQLRNLWQQQQLGFAVYRSDMLCHEGVEFADIIDIRTKFYFESKYRTVWHQEIWRPNGKKPAVTATIEMVCMNQARQLAPMPAELITQLSLGM | soluble |
| MSDAHVLKSRLEWGEPAFTILDVRDRSTYNDGHIMGAMAMPIEDLVDRASSSLEKSRDIYVYGAGDEQTSQAVNLLRSAGFEHVSELKGGLAAWKAIGGPTEGIIESRLEHHHHHH | not soluble |
| MTTHQFEHPLNEKTRIYLRVEALLNQMERASTFSDGIQHQLFFRSLFDMLEIFEQIQLKSELAKDMEKQRLTYRSWLHVEGVDQEMLNSLLTEVDEVHRDLMSAERFGQSLKEDRFLSAIRQRFNLPGGSCCFDLPALHYWLHLPLDRKMRDAQQWMQTVTPLSNALKLWLKLTRETGHYRSRMASNGFYQSDAEDANILRLAIPLEYGVYPMISGHKNRFAIKFIDFHSGQACTQDIAFDLAVCC | not soluble |
| MKHFSVKRLLGLSSVLLVTLGASMHAQSYLPKHESVTLKNGLQVVSVPLENKTGVIEVDVLYKVGSRNETMGKSGIAHMLEHLNFKSTKNLKAGEFDKIVKRFGGVSNASTSFDITRYFIKTSQANLDKSLELFAETMGSLNLKEDEFLPERQVVAEERRWRTDNSPIGMLYFRFFNTAYVYHPYHWTPIGFMDDIQNWTLKDIKKFHSLYYQPKNAIVLVVGDVNSQKVFELSKKHFESLKNLDEKAIPTPYMKEPKQDGARTAVVHKDGVHLEWVALGYKVPAFKHKDQVALDALSRLLGEGKSSWLQSELVDKKRLASQAFSHNMQLQDESVFLFIAGGNPNVKAEALQKEIVALLEKLKKGEITQAELDKLKINQKADFISNLESSSDVAGLFADYLVQNDIQGLTDYQRQFLDLKVSDLVRVANEYFKDTQSTTVFLKP | not soluble |
| MNDVPHRPQVKTRKALTPLLEIRNLTKSFDGQHAVDDVSLTIYKGEIFALLGASGCGKSTLLRMLAGFEPPSSGQIMLDGVDLAHVPPYQRPINMMFQSYALFPHMTVEQNIAFGLKQDKLPKAEITSRVNEMLGLVHMQEFAKRKPHQLSGGQRQRVALARSLAKRPKLLLLDEPMGALDKKLRDRMQLEVVDILERVGVTCVMVTHDQEEAMTMAGRIAIMNRGKFVQIGEPEEIYEHPTTRYSAEFIGSVNVFEGLLKAREEDGLVIDAPGLVHPLKVDADASVVDNVPVYVALRPEKIMLCESPPADGYNFAVGEVAHIAYLGDLSIYHVRLKSGQMISAQLQNAHRYRKGLPTWGDEVRLCWEADSCVVLTV | not soluble |
| MVLQIMLLTKPVPLYPPYIDLCDFDFDDYPQLDKIFSSNEPWWLEQFNWGKIFLTYIGRNKSAHTYERFRNDVERFLLWSFIVKKKPIDQLRKSDLLEYADFCWQPPVDWIGTSNQERFKITNGYSAANELWFPYKIQAPKSLKSQFVIDKKKYRPSQQTLSSMFTAIIVFYNYLMAEDFCIGNPAQIAKKDCRHFIIDSQVKEIKRLTGSQWQFVLDTAVEMADENAMFERNLFVIASLKTLFLRISELSERPNWSPTMGHFWQDDDENWWLKIFGKSRKLRDITVPIDFLPFLERYRASRGLLGLPSSNENSILVEKVRGQGGMTSRHLRRLVQSVFDQAHENMRRSEGENKALKLKEASAHWLRHTGASMEIERGRPLKDISEDLGHASMATTDTVYVQSENKKRAESGKRRKVD | not soluble |
